# Data reported in publication PMC9352680, “A comprehensive thermodynamic model for RNA binding by the Saccharomyces cerevisiae Pumilio protein PUF4”.
# Biological target: T1, PUF4 RNA-binding domain (Saccharomyces cerevisiae, UniProt P25339 537-888)
# T1 sequence: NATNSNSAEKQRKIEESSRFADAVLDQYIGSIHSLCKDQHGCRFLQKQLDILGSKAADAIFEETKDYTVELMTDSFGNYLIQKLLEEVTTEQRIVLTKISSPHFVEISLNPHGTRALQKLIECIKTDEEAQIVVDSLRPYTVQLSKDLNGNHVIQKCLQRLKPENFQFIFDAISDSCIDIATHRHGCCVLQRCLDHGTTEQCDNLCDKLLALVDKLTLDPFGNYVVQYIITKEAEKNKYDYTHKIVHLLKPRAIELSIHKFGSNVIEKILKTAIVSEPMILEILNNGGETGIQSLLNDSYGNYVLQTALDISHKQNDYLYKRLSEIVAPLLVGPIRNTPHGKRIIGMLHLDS
# Test: Mg; RNA-MaP; 20 mM Na-HEPES pH 7.4, 30 mM KOAc, 0.75 mM MgCl2, 0.1% Tween-20, 5% glycerol, 0.1 mg/mL BSA, 2 mM DTT; 25 C; 0.0125-409.6 nM protein
# Conditions: tags: N-His6-TEV cleaved; C-SNAP kept, Cy3B-labelled; label: tethered on chip by stalled RNA polymerase
row,Binder,Kd [nM]
1,UCUCUUGCUAUAUAUUACUUCUCUU (ssRNA) [Id_ii_S1_P4E.3_K4.2_C4.2_[C-2G]_[T-1C]_H4.2_A4.1_F4.1_T4.2_[G10C]],30.6
2,UCUCUUUGUAUAUAUUAAUUCUCUU (ssRNA) [Id_ii_S1_P4E.3_K4.2_C4.2_[C-2T]_[T-1G]_H4.2_A4.1_F4.1_T4.2_[G10A]],4.75
3,UCUCUUCAUGUAUAUUAAUUCUCUU (ssRNA) [Id_ii_S1_P4E.2_K4.1_C4.2_[T-1A]_H4.1_A4.1_F4.1_T4.2_[G10A]],1.1
4,UCUCUUUGUAUAUAUUAUUUCUCUU (ssRNA) [Id_ii_S1_P4E.3_K4.2_C4.2_[C-2T]_[T-1G]_H4.2_A4.1_F4.1_T4.2_[G10T]],4.46
5,UCUCUUUGUAUAUAUUAAGUCUCUU (ssRNA) [Id_ii_S1_P4E.3_K4.2_C4.2_[C-2T]_[T-1G]_H4.2_A4.1_F4.1_T4.2_[G10A]_[T11G]],8.46
6,UCUCUUGCUAUAUAUUAAUUCUCUU (ssRNA) [Id_ii_S1_P4E.3_K4.2_C4.2_[C-2G]_[T-1C]_H4.2_A4.1_F4.1_T4.2_[G10A]],70.2
7,UCUCUUGUUAUAUAUUAAAUCUCUU (ssRNA) [Id_ii_S1_P4E.3_K4.2_C4.2_[C-2G]_H4.2_A4.1_F4.1_T4.2_[G10A]_[T11A]],26.8
8,UCUCUUUCUAUAUAUUACAUCUCUU (ssRNA) [Id_ii_S1_P4E.3_K4.2_C4.2_[C-2T]_[T-1C]_H4.2_A4.1_F4.1_T4.2_[G10C]_[T11A]],23.1
9,UCUCUUCUUGUAUAUUAAAUCUCUU (ssRNA) [Id_ii_S1_P4E.2_K4.1_C4.2_H4.1_A4.1_F4.1_T4.2_[G10A]_[T11A]],0.971
10,UCUCUUCUUGUAUAUUACUUCUCUU (ssRNA) [Id_ii_S1_P4E.2_K4.1_C4.2_H4.1_A4.1_F4.1_T4.2_[G10C]],0.702
11,UCUCUUUAUAUAUAUUACAUCUCUU (ssRNA) [Id_ii_S1_P4E.3_K4.2_C4.2_[C-2T]_[T-1A]_H4.2_A4.1_F4.1_T4.2_[G10C]_[T11A]],28.9
12,UCUCUUGUUAUAUAUUAGUUCUCUU (ssRNA) [Id_ii_S1_P4E.3_K4.2_C4.2_[C-2G]_H4.2_A4.1_F4.1_T4.2],8.13
13,UCUCUUUGUUAAUUAUCUCUU (ssRNA) [Ib_S1_P4E.1_K4.1_C4.1_H4.1_[A4T]_A4.1_[T5A]_F4.1_T4.1],43.5
14,UCUCUUUGUCCAUUAUCUCUU (ssRNA) [Ib_S1_P4E.1_K4.1_C4.1_H4.1_[A4C]_A4.1_[T5C]_F4.1_T4.1],20.5
15,UCUCUUUCUAUAUAUUAUCUCUCUU (ssRNA) [Id_ii_S1_P4E.3_K4.2_C4.2_[C-2T]_[T-1C]_H4.2_A4.1_F4.1_T4.2_[G10T]_[T11C]],17.2
16,UCUCUUGCUAUAUAUUACCUCUCUU (ssRNA) [Id_ii_S1_P4E.3_K4.2_C4.2_[C-2G]_[T-1C]_H4.2_A4.1_F4.1_T4.2_[G10C]_[T11C]],61.4

row,Binder,Kd [nM]
1,UCUCUUUCUAUAUAUUACUUCUCUU (ssRNA) [Id_ii_S1_P4E.3_K4.2_C4.2_[C-2T]_[T-1C]_H4.2_A4.1_F4.1_T4.2_[G10C]],23.8
2,UCUCUUUGUAUAUAUUAACUCUCUU (ssRNA) [Id_ii_S1_P4E.3_K4.2_C4.2_[C-2T]_[T-1G]_H4.2_A4.1_F4.1_T4.2_[G10A]_[T11C]],2.38
3,UCUCUUGUUAUAUAUUAUCUCUCUU (ssRNA) [Id_ii_S1_P4E.3_K4.2_C4.2_[C-2G]_H4.2_A4.1_F4.1_T4.2_[G10T]_[T11C]],12.5
4,UCUCUUUAUAUAUAUUACGUCUCUU (ssRNA) [Id_ii_S1_P4E.3_K4.2_C4.2_[C-2T]_[T-1A]_H4.2_A4.1_F4.1_T4.2_[G10C]_[T11G]],21.9
5,UCUCUUUGUCGAUUAUCUCUU (ssRNA) [Ib_S1_P4E.1_K4.1_C4.1_H4.1_[A4C]_A4.1_[T5G]_F4.1_T4.1],336
6,UCUCUUGUUAUAUAUUACCUCUCUU (ssRNA) [Id_ii_S1_P4E.3_K4.2_C4.2_[C-2G]_H4.2_A4.1_F4.1_T4.2_[G10C]_[T11C]],13
7,UCUCUUUGUGUGUUAUCUCUU (ssRNA) [Ib_S1_P4E.1_K4.1_C4.1_H4.1_[A4G]_A4.1_[A6G]_F4.1_T4.1],43.8
8,UCUCUUCAUGUAUAUUAGGUCUCUU (ssRNA) [Id_ii_S1_P4E.2_K4.1_C4.2_[T-1A]_H4.1_A4.1_F4.1_T4.2_[T11G]],1.02
9,UCUCUUCUUGUAUAUUAUGUCUCUU (ssRNA) [Id_ii_S1_P4E.2_K4.1_C4.2_H4.1_A4.1_F4.1_T4.2_[G10T]_[T11G]],0.808
10,UCUCUUGCUAUAUAUUAUAUCUCUU (ssRNA) [Id_ii_S1_P4E.3_K4.2_C4.2_[C-2G]_[T-1C]_H4.2_A4.1_F4.1_T4.2_[G10T]_[T11A]],57.3
11,UCUCUUCUUGUAUAUUAUAUCUCUU (ssRNA) [Ie_S1_P3E.2_K3.1_C3.2_H3.1_A3.1_[+6T]_F3.1_T3.2],0.724
12,UCUCUUUAUAUAUAUUACCUCUCUU (ssRNA) [Id_ii_S1_P4E.3_K4.2_C4.2_[C-2T]_[T-1A]_H4.2_A4.1_F4.1_T4.2_[G10C]_[T11C]],29.6
13,UCUCUUGUUAUAUAUUAAUUCUCUU (ssRNA) [Id_ii_S1_P4E.3_K4.2_C4.2_[C-2G]_H4.2_A4.1_F4.1_T4.2_[G10A]],21
14,UCUCUUCUUGUAUAUUAGUUCUCUU (ssRNA) [If_S1_P4E.2_K4.1_C4.2_H4.1_A4.1_F4.1_T4.2],0.286
15,UCUCUUGUUAUAUAUUAUGUCUCUU (ssRNA) [Id_ii_S1_P4E.3_K4.2_C4.2_[C-2G]_H4.2_A4.1_F4.1_T4.2_[G10T]_[T11G]],15.3
16,UCUCUUGCUAUAUAUUACGUCUCUU (ssRNA) [Id_ii_S1_P4E.3_K4.2_C4.2_[C-2G]_[T-1C]_H4.2_A4.1_F4.1_T4.2_[G10C]_[T11G]],56.3
